The term Kd denotes a measure of binding affinity in units of concentration. A word on the koff: it is a measure of how fast the partners let go of each other. Usually kon stands for a measure of how fast the partners come together. The term IC50 denotes the concentration needed to halve the response being measured. Read a high IC50 as weaker potency. By EC50 is commonly meant the concentration giving half of the maximal effect.

This note sets out measurements from patent publication US20220306744A1 (CRESCENDO BIOLOGICS, published 2022).

Assay [1] addresses T1, Strep tagged recombinant human PD-1 (human, UniProt Q15116 25-167, limits assumed).
T1 construct: whole entry named; also called Strep tagged human PD-1; not shown: Strep tag
Description: SPR Biacore T200, single cycle kinetics, Strep tagged human PD-1 amine coupled, 1:1 model. The procedure:
Single cycle kinetics assays were used to study the interaction between human PD-1 with Humabody VHs on a Biacore T200 instrument (GE Healthcare). Strep tagged recombinant human PD-1 was amine coupled to one flow cell of a CM-5 chip to create a low density surface (14 RU) using standard Biacore reagents. For the reference flow cell, a blank immobilisation was carried out. A five point, three-fold dilution series of each Humabody VH was made with a top concentration of 25 nM. The binding kinetics were followed by flowing the Humabody VH over the chip surface in HBS EP+ buffer at a flow rate of 30 μl/min. The contact time for each of the association steps was 180 seconds and the dissociation step was 3300 seconds. The data was fitted to a 1:1 binding model after double reference subtraction using the Biacore T200 Evaluation software.
In general terms: SPR reads the build-up and loss of mass on a sensor chip optically.

The target in assay [2] is T2, human PD-1 expressed on cells (CHO TREX human PD1 cell line, full-length human PD-1 sequence) (human, UniProt Q15116 21-288).
T2 construct: Also used for human PD-1 on Jurkat reporter cells, on PathHunter cells and on PHA-stimulated human CD4+ T cells; also called CHO human PD1 cells; CHO human PD-1 cells
Description: FMAT: inhibition of human Fc tagged human PD-L1 (400 pM) binding to CHO human PD-1 cells. The procedure:
(§1) Purified VH were serially diluted in FMAT assay buffer and tested for binding to CHO human PD-1 cells as described above and for inhibition of human PD-L1/PD-L2 binding to CHO human PD-1 cells. All reagents and serially diluted VH were prepared in FMAT assay buffer. VH, buffer (total binding controls) or excess competitor (non-specific binding control) were incubated with 400 pM human Fc tagged human PD-L1 or 100 pM PDL-2, 4 nM anti human Fc-Alexa Fluor-488 and 2000 per well CHO human PD-1 DRAQ5 stained cells in a 384 well black clear-bottomed assay plates. Plates were incubated for 2 hours at room temperature then fluorescence measured in the FL2 (502 nm-537 nm) and FL5 (677-800 nm) channels on the Mirrorball plate reader (TTP) following excitation at 488 nm and 640 nm. Data was expressed as a % of the total binding control (i.e. % control) after subtraction of the background signal determined from the non-specific binding control wells. The results are shown in FIG. 5 and in Tables 8 and 9 below.

Assay [3] has as its target T3, recombinant human PD-1 Fc chimera (human, UniProt Q15116 25-167).
T3 construct: Bought protein (R&D 1086-PD in the HTRF assay); also called human PD-1-hu Fc; huPD-1Fc; not shown: human Fc
Briefly: SPR Biacore T200, single cycle kinetics, human Fc tagged PD-1 captured on Protein G, 1:1 model. The procedure: Single cycle kinetics assays were used to study the interaction between human Fc tagged human PD-1 with Humabody® VH on a Biacore T200 instrument (GE Healthcare). Protein G was amine coupled to two flow cells of a CM-5 chip. Human Fc tagged recombinant human PD-1 was captured onto one of the flow cells. The other was used as the reference flow cell. A five point, three-fold dilution series of each Humabody® VH was made with a top concentration within the range of 50 to 150 nM. The binding kinetics were followed by flowing the Humabody® VH over the chip surface in HBS EP+ buffer at a flow rate of 30 μl/min. The contact time for each of the association steps was 180 seconds and the dissociation step was 3600 seconds. The data was fitted to a 1:1 binding model after double reference subtraction using the Biacore T200 Evaluation software.

Assay [4] has as its target T2, human PD-1 expressed on cells (CHO TREX …). Briefly: FMAT: inhibition of PDL-2 (100 pM) binding to CHO human PD-1 cells. The procedure: as §1
The target is the same in assay [5]. Description: FMAT: inhibition of human Fc tagged human PD-L1 (400 pM) binding to CHO human PD-1 cells. The procedure:
as §1
This is another data set of the same source.

Assay [6] has as its target T3, recombinant human PD-1 Fc chimera. Description: SPR Biacore T200, single cycle kinetics, human PD-1-hu Fc amine coupled to CM5, 1:1 model. The procedure:
Binding kinetics of certain humabodies binding to human PD-1-hu Fc were measured by surface plasmon resonance (SPR) technology using Biacore T200 instrument (GE Healthcare). Recombinant human PD-1-hu Fc was immobilized by standard amine coupling to CM5 sensors chip (GE Healthcare) using 0.1 mg/ml solution of antigen in 10 mM sodium acetate at pH 5.5. For the reference flow cell, a blank immobilisation was carried out. Single cycle kinetics assays were used to study the interaction, a five point, three-fold dilution series of each Humabody® VH was made with a top concentration of 30 nM. The binding kinetics were followed by flowing the Humabody® VH over the chip surface in HBS EP+ buffer at a flow rate of 30 μl/min. The contact time for each of the association steps was 180 seconds and the dissociation step was varied between 1200-3600 seconds. The data was fitted to a 1:1 binding model after double reference subtraction using the Biacore T200 Evaluation software.

In assay [7] the target is T4, mouse PD-1 protein (R&D Systems cat no. 1021-PD) (mouse, UniProt Q02242 25-167).
T4 construct: Bought protein
T4 sequence (looked up): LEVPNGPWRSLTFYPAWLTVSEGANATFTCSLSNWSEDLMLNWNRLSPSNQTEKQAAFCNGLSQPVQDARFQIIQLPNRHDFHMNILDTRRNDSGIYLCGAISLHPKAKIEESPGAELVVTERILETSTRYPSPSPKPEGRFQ
Briefly: HTRF binding assay, 2 nM mouse PD1. The procedure: (§2) Purified VH were tested for their ability to bind to human PD1 (R&D Systems cat no. 1086-PD), cynomolgus PD-1 (Acro Biosystems cat no. PD-1-C5254) and mouse PD1 (R&D Systems cat no. 1021-PD) in an HTRF Binding assay format. All reagents and serially diluted VH were prepared in assay buffer containing PBS, 0.1% BSA and 0.4M Potassium Fluoride. Samples or assay buffer (non-specific binding) were incubated with 2 nM human/cynomolgus or mouse PD1, 1 nM Anti human-Fc Cryptate PAb (Cisbio cat. no. 61HFCKLB) and 30 nM anti His-D2 (CisBio cat no 61HISDLA) in black 384-shallow well assay plates for a minimum of 3 hours at room temperature. Time-resolved fluorescent emission at 620 nm and 665 nm was measured following excitation at 337 nm on the BMG PHERAstar plate reader. The HTRF ratio were calculated ((665 nm emission/620 nm emission)*10000) and the data corrected for (non-specific binding) to give the specific binding signal.
(In general: In TR-FRET formats the signal depends on donor and acceptor labels being close together.)

Assay [8] concerns the target T5, cynomolgus PD-1 recombinant protein (Acro Biosystems cat no. PD-1-C5254) (cynomolgus).
T5 construct: Bought protein; also called cyno PD1
Description: HTRF binding assay, 2 nM recombinant PD1, anti His-D2 and anti human-Fc cryptate. The procedure:
as §2

Assay [9] deals with T3, recombinant human PD-1 Fc chimera. The description is as above. The procedure:
as §2

Assay [10] has as its target T2, human PD-1 expressed on cells (CHO TREX …). Briefly: cell-based or functional assay.
The target of assay [11] is T3, recombinant human PD-1 Fc chimera. Description: BLI Octet, human PD-1-hu Fc amine coupled to biosensors, 1:1 model. The procedure: Binding kinetics for Humabody® 1.1a to human PD-1-hu Fc are shown below. These were measured in real-time bio-layer interferometer based biosensor Octet (ForteBio). Recombinant human PD-1-hu Fc was immobilized by standard amine coupling to amine reactive biosensors in 10 mM sodium acetate at pH 5.0. All the binding studies were performed in HBS-ET Octet kinetics buffer. Biosensors were always washed in Octet kinetics buffer in between different steps. A seven point, two-fold dilution series of each Humabody® VH was made with a top concentration of 30 nM. The contact time for each of the association steps was 300 seconds and the dissociation step was varied between 400-600 seconds. Kinetic association (kₐ) and dissociation (kd) rate constants were determined by processing and fitting the data to a 1:1 binding model using ForteBio Analysis software.

T2 sequence (Q15116 21-288): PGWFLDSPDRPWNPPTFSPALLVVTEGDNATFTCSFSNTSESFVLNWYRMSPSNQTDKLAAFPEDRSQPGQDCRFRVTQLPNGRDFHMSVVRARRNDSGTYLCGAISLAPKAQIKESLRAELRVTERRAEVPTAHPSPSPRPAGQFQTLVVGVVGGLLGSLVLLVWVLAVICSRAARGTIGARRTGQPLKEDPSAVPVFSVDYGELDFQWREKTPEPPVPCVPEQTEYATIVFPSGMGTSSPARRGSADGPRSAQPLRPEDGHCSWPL
T1 sequence (Q15116 25-167 limits assumed): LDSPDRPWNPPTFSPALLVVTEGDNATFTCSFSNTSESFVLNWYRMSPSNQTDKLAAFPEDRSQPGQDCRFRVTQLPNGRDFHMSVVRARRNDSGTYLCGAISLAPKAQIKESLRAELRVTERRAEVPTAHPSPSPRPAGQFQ
T3 sequence (Q15116 25-167 limits assumed, change not shown): as the sequence (Q15116 25-167 limits assumed) above

B1: 1.57b (VHH)
VHH: QVQLVESGGGLVKPGGSLRLSCAASGFTFSDNSMTWMRQAPGKGLEWVSYISSGGGVIFYADSVKGRFTISRDNAKNSLYLQMNSLRADDTAVYYCAREAPLRLGESPHDAFDISGQGTMVTVSS
On to B1, for which the dissociation constant (Kd) in assay [1] is 78.2 pM; in [3], 44.1 pM; in [6] it was 0.124 pM. The figures for the off-rate (koff) in assay [1], in assay [3] and in assay [6] were 3.17e-05 s⁻¹, 2.11e-05 s⁻¹ and 6.68e-08 s⁻¹, respectively. The kon in [1] came to 405000 M⁻¹ s⁻¹; in [3], 479000 M⁻¹ s⁻¹; in [6], 537000 M⁻¹ s⁻¹. Moreover, the values for the half-inhibitory concentration (IC50) in assay [2], in assay [4] and in [5] were 4200 pM, 2300 pM and 1800 pM, respectively.

B2: 1.1b-6GS-1.1a (other)
chain: QVQLVESGGGLVKPGGSLRLSCAASGFTFSDYTMTWMRQAPGKGLEWVSYISTGGTIKYYTDSVKGRFTISRDNAKNSLYLQMNSLRADDTAVYYCAREAPLRLGESPHDAFDIWGQGTMVTVSSGGGGSGGGGSGGGGSGGGGSGGGGSGGGGSEVQLLESGGGSVQPGRSLRLSCAASGFTFDDHAMHWVRQAPGKGLEWVSGISWNSGSMGYADSVKDRFTISRDNAKSSLYLQMNSLRAEDTALYYCVREKGPGLTGSTADYYGLDVWGQGTMVTVSS
notes: Biparatopic VH-linker-VH
For the molecule B2, the binding result in [7] is listed as “no binding”. Further, the 50% effective concentration (EC50) in assay [8] came out at 920 pM. In [9], the concentration for a half-maximal effect (EC50) turned out to be 500 pM. For the same molecule, in [6], the Kd was 28 pM, the koff worked out at 6.39e-06 s⁻¹ and the kon is 228000 M⁻¹ s⁻¹. For the same molecule, the “EC50 (M), NFAT-Luciferase reporter gene assay” value in [10] turned out to be 1.1e-08 M.

B3: 1.57b-4GS-1.1a (other)
chain: QVQLVESGGGLVKPGGSLRLSCAASGFTFSDNSMTWMRQAPGKGLEWVSYISSGGGVIFYADSVKGRFTISRDNAKNSLYLQMNSLRADDTAVYYCAREAPLRLGESPHDAFDISGQGTMVTVSSGGGGSGGGGSGGGGSGGGGSEVQLLESGGGSVQPGRSLRLSCAASGFTFDDHAMHWVRQAPGKGLEWVSGISWNSGSMGYADSVKDRFTISRDNAKSSLYLQMNSLRAEDTALYYCVREKGPGLTGSTADYYGLDVWGQGTMVTVSS
notes: Biparatopic VH-linker-VH
Take B3: the Kd in assay [1] worked out at 111 pM; in assay [3], 0.0594 pM. The values for the off-rate (koff) in assay [1] and in assay [3] were 4.86e-05 s⁻¹ and 4.59e-08 s⁻¹, respectively. Also, the kon in [1] came out at 437000 M⁻¹ s⁻¹; in assay [3], 773000 M⁻¹ s⁻¹. Also, the IC50 in [2] came to 1300 pM; in assay [4], 1200 pM; in [5], 900 pM. In assay [7], the binding result is reported as “no binding”. Further, the concentration for a half-maximal effect (EC50) in [8] was determined as 2100 pM; in [9], 1200 pM. Moreover, the “EC50 (M), NFAT-Luciferase reporter gene assay” value in assay [10] was determined as 1.7e-09 M.

B4: 1.1a (VHH)
VHH: EVQLLESGGGSVQPGRSLRLSCAASGFTFDDHAMHWVRQAPGKGLEWVSGISWNSGSMGYADSVKDRFTISRDNAKSSLYLQMNSLRAEDTALYYCVREKGPGLTGSTADYYGLDVWGQGTMVTVSS
notes: also called Humabody 1.1a; VH single domain antibody 1.1a
With B4, in [11], the koff came out at 0.000901 s⁻¹ and the kon was 459000 M⁻¹ s⁻¹. Further, in assay [6], the Kd was determined as 676 pM, the koff was determined as 7.35e-05 s⁻¹ and the kon was 109000 M⁻¹ s⁻¹.
